B1: LOXL2 (parent)
chain: FSPDGPSRFRKAYKPEQPLVRLRG

Variants of: B1
Assay: protein stability index of a GFP-peptide fusion (GPS, HEK-293T) (PSI 1-6); higher = more stable
Conditions: c terminus: a fixed tail appended
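Note: lentivirally expressed fusions sorted by FACS into six bins by GFP to DsRed ratio, PSI derived from sequencing read proportions per bin multiplied by bin number.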

In order of rising protein stability index:
1. FSPDGPSRFHKAYKPEQPLVRLRG  1.02
2. FSPDGPSKFRKAYKPEQPLVRLRG  1.27
3. FSPDGPSRFRDAYKPEQPLVRLRG  1.28
4. FSPDGPSRFRKRYKPEQPLVRLRG  1.42
5. FSPDGPSLFRKAYKPEQPLVRLRG  1.5
6. FSPDGPSRFRKAIKPEQPLVRLRG  1.54
7. FSPDGPSRFRKFYKPEQPLVRLRG  1.57
8. FSPDGPSRFRSAYKPEQPLVRLRG  1.62
9. FSPDGPSRFRHAYKPEQPLVRLRG  1.64
10. FSPDGPSNFRKAYKPEQPLVRLRG  1.71
11. FSPDGPSRFKKAYKPEQPLVRLRG  1.75
12. FSPDGPSRFRIAYKPEQPLVRLRG  1.76
13. FSPDGPSRFGKAYKPEQPLVRLRG  1.78
14. FSPDGPSRFRKHYKPEQPLVRLRG  1.8
15. FSPDGPSRFRKAHKPEQPLVRLRG  1.81
16. FSPDGPSEFRKAYKPEQPLVRLRG  1.81
17. FSPDGPSRFRKCYKPEQPLVRLRG  1.88
18. FSPDGPSRFRKSYKPEQPLVRLRG  1.9
19. FSPDGPSRFRKAFKPEQPLVRLRG  1.91
20. FSPDGPSRFRKYYKPEQPLVRLRG  1.91
21. FSPDGPSRFNKAYKPEQPLVRLRG  1.94
22. FSPDGPSRFRKQYKPEQPLVRLRG  1.96
23. FSPDGPSRFLKAYKPEQPLVRLRG  1.97
24. FSPDGPSRFYKAYKPEQPLVRLRG  1.98
25. FSPDGPSRFQKAYKPEQPLVRLRG  1.99
26. FSPDGPSRFRKKYKPEQPLVRLRG  2
27. FSPDGPSRLRKAYKPEQPLVRLRG  2.01
28. FSPDGPSGFRKAYKPEQPLVRLRG  2.02
29. FSPDGPSRFRKDYKPEQPLVRLRG  2.03
30. FSPDGPSRVRKAYKPEQPLVRLRG  2.05
31. FSPDGPSRFRKAAKPEQPLVRLRG  2.05
32. FSPDGPSRFRKAGKPEQPLVRLRG  2.06
33. FSPDGPSRFMKAYKPEQPLVRLRG  2.1
34. FSPDGPSTFRKAYKPEQPLVRLRG  2.1
35. FSPDGPSRFRKNYKPEQPLVRLRG  2.11
36. FSPDGPSRFRKPYKPEQPLVRLRG  2.13
37. FSPDGPSRFPKAYKPEQPLVRLRG  2.14
38. FSPDGPSRFRKAEKPEQPLVRLRG  2.15
39. FSPDGPSRFRKEYKPEQPLVRLRG  2.15
40. FSPDGPSRFDKAYKPEQPLVRLRG  2.2
41. FSPDGPSRFRFAYKPEQPLVRLRG  2.21
42. FSPDGPSRIRKAYKPEQPLVRLRG  2.23
43. FSPDGPSHFRKAYKPEQPLVRLRG  2.23
44. FSPDGPSRTRKAYKPEQPLVRLRG  2.27
45. FSPDGPSRFRGAYKPEQPLVRLRG  2.27
46. FSPDGPSRFRKVYKPEQPLVRLRG  2.3
47. FSPDGPSDFRKAYKPEQPLVRLRG  2.31
48. FSPDGPSRFRLAYKPEQPLVRLRG  2.31
49. FSPDGPSRFRKLYKPEQPLVRLRG  2.35
50. FSPDGPSRFRPAYKPEQPLVRLRG  2.41
51. FSPDGPSQFRKAYKPEQPLVRLRG  2.42
52. FSPDGPSRFRKGYKPEQPLVRLRG  2.44
53. FSPDGPSRWRKAYKPEQPLVRLRG  2.45
54. FSPDGPSRFVKAYKPEQPLVRLRG  2.46
55. FSPDGPSRFEKAYKPEQPLVRLRG  2.5
56. FSPDGPSRARKAYKPEQPLVRLRG  2.52
57. FSPDGPSRSRKAYKPEQPLVRLRG  2.56
58. FSPDGPSRMRKAYKPEQPLVRLRG  2.56
59. FSPDGPSRRRKAYKPEQPLVRLRG  2.58
60. FSPDGPSRKRKAYKPEQPLVRLRG  2.58
61. FSPDGPSRFRKTYKPEQPLVRLRG  2.59
62. FSPDGPSRFRYAYKPEQPLVRLRG  2.6
63. FSPDGPSYFRKAYKPEQPLVRLRG  2.66
64. FSPDGPSSFRKAYKPEQPLVRLRG  2.66
65. FSPDGPSRFRVAYKPEQPLVRLRG  2.66
66. FSPDGPSRFRNAYKPEQPLVRLRG  2.7
67. FSPDGPSRFRRAYKPEQPLVRLRG  2.72
68. FSPDGPSFFRKAYKPEQPLVRLRG  2.75
69. FSPDGPSPFRKAYKPEQPLVRLRG  2.76
70. FSPDGPSRFRKAKKPEQPLVRLRG  2.77
71. FSPDGPSRCRKAYKPEQPLVRLRG  2.78
72. FSPDGPSRFIKAYKPEQPLVRLRG  2.8
73. FSPDGPSRHRKAYKPEQPLVRLRG  2.81
74. FSPDGPSRNRKAYKPEQPLVRLRG  2.85
75. FSPDGPSVFRKAYKPEQPLVRLRG  2.88
76. FSPDGPSRFRMAYKPEQPLVRLRG  2.98
77. FSPDGPSRGRKAYKPEQPLVRLRG  3.03
78. FSPDGPSRYRKAYKPEQPLVRLRG  3.04
79. FSPDGPSRFRKACKPEQPLVRLRG  3.06
80. FSPDGPSRFRKIYKPEQPLVRLRG  3.12
81. FSPDGPSRFRQAYKPEQPLVRLRG  3.17
82. FSPDGPSRDRKAYKPEQPLVRLRG  3.29
83. FSPDGPSRPRKAYKPEQPLVRLRG  3.29
84. FSPDGPSRFRKADKPEQPLVRLRG  3.33
85. FSPDGPSRFSKAYKPEQPLVRLRG  3.35
86. FSPDGPSRFCKAYKPEQPLVRLRG  3.46
87. FSPDGPSRFREAYKPEQPLVRLRG  3.54
88. FSPDGPSRERKAYKPEQPLVRLRG  3.71
89. FSPDGPSRFRTAYKPEQPLVRLRG  3.77
90. FSPDGPSRQRKAYKPEQPLVRLRG  3.94
91. FSPDGPSWFRKAYKPEQPLVRLRG  3.95
92. FSPDGPSRFFKAYKPEQPLVRLRG  4
93. FSPDGPSIFRKAYKPEQPLVRLRG  4.19
94. FSPDGPSRFRKWYKPEQPLVRLRG  4.25

Source: the supplement of paper PMC10567573
